Blank lines part the entries; values can stand above or below the substance they belong to.
How the values were obtained:
Assay in all cases: cell-based or functional assay
[1] = target: AA-SR-106 (SR-106), IL10RA ECD-IL10RA TM-CD3z ICD
[2] = target: AA-SR-121 (SR-121), IL10RA ECD-CD28 TM-CD3z ICD
[3] = target: AA-SR-107 (SR-107), IL10RB ECD-IL10RB TM-CD3z ICD
[4] = target: AA-SR-122 (SR-122), IL10RB ECD-CD28 TM-CD3z ICD
[5] = target: AA-SR-111 (SR-111), PD1 ECD-PD1 TM-CD3z ICD
[6] = target: AA-SR-126 (SR-126), PD1 ECD-CD28 TM-CD3z ICD
Chain of AA-SR-126 (SR-126), PD1 ECD-CD28 TM-CD3z ICD (chain, as listed by the source limits assumed, form in doubt): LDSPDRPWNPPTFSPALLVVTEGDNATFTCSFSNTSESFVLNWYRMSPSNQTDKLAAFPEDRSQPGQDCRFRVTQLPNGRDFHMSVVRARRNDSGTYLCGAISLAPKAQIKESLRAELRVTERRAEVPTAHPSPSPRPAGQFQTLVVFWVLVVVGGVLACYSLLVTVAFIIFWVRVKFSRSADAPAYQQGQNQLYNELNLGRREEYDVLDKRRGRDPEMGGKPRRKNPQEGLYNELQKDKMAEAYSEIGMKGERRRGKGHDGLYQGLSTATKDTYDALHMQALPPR

[7] = target: AA-TGFB-007 (TGFB-007), TGF-BR2 ECD-TGFBR2 TM-TGFBR2 truncated ICD (Homo sapiens (Human)) (UniProt P37173)
Chain of AA-TGFB-007 (TGFB-007), TGF-BR2 ECD-TGFBR2 TM-TGFBR2 truncated ICD (Homo sapiens (Human)) (P37173 23-199, form in doubt): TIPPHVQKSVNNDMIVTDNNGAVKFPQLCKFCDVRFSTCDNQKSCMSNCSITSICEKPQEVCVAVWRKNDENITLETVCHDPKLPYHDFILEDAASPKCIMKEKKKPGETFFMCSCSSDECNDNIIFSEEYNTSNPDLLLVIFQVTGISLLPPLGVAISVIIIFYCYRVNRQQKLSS

[8] = target: AA-TGFB-021 (TGFB-021), TGF-BR2 ECD-CD28 TM-CD3z ICD
Chain of AA-TGFB-021 (TGFB-021), TGF-BR2 ECD-CD28 TM-CD3z ICD (chain, as listed by the source limits assumed, form in doubt): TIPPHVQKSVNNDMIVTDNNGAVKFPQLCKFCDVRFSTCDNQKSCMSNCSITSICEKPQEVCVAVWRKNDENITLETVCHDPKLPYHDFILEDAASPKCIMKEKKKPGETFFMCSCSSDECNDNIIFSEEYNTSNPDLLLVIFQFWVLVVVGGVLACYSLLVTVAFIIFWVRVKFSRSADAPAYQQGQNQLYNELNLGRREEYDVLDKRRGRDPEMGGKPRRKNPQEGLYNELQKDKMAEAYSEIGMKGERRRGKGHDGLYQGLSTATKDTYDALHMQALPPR

[9] = target: AA-SR-113 (SR-113), TIGIT ECD-TIGIT TM-CD3z ICD
Chain of AA-SR-113 (SR-113), TIGIT ECD-TIGIT TM-CD3z ICD (chain, as listed by the source limits assumed, form in doubt): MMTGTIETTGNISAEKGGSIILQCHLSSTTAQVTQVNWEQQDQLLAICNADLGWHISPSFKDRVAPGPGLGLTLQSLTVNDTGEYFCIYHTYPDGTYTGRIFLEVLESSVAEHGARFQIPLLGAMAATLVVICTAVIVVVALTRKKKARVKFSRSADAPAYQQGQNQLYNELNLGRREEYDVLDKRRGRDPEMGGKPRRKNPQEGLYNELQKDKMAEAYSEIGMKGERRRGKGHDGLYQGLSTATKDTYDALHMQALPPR

[10] = target: AA-SR-128 (SR-128), TIGIT ECD-CD28 TM-CD3z ICD
Chain of AA-SR-128 (SR-128), TIGIT ECD-CD28 TM-CD3z ICD (chain, as listed by the source limits assumed, form in doubt): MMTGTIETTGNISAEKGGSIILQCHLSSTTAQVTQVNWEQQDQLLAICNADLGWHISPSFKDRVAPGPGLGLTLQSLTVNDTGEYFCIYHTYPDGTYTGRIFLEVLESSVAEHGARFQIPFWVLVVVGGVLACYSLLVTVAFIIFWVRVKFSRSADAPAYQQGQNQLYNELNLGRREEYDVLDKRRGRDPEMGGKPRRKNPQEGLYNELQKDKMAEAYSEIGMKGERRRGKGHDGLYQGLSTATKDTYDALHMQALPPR

[11] = target: AA-SR-109 (SR-109), GP130 ECD-GP130 TM-CD3z ICD
Chain of AA-SR-109 (SR-109), GP130 ECD-GP130 TM-CD3z ICD (chain, as listed by the source limits assumed, form in doubt): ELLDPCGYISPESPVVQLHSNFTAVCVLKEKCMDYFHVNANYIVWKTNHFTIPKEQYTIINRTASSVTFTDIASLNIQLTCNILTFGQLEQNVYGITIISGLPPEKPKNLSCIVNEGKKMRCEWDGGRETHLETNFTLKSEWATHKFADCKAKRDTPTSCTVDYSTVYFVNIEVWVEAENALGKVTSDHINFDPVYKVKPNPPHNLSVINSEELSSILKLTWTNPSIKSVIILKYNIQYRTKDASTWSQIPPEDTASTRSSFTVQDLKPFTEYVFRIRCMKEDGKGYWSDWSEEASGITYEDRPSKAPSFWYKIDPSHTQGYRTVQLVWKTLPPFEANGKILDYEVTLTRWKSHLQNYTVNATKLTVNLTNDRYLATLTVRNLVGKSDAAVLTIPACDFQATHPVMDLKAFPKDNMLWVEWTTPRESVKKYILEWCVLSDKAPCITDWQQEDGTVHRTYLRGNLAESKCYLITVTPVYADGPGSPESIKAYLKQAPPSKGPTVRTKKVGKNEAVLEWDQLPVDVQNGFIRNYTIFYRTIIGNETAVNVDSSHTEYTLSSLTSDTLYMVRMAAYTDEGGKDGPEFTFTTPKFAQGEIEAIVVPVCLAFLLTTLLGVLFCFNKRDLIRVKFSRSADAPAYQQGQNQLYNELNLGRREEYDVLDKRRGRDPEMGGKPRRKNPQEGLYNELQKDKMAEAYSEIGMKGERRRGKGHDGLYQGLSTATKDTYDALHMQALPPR

[12] = target: AA-SR-124 (SR-124), GP130 ECD-CD28 TM-CD3z ICD
Chain of AA-SR-124 (SR-124), GP130 ECD-CD28 TM-CD3z ICD (chain, as listed by the source limits assumed, form in doubt): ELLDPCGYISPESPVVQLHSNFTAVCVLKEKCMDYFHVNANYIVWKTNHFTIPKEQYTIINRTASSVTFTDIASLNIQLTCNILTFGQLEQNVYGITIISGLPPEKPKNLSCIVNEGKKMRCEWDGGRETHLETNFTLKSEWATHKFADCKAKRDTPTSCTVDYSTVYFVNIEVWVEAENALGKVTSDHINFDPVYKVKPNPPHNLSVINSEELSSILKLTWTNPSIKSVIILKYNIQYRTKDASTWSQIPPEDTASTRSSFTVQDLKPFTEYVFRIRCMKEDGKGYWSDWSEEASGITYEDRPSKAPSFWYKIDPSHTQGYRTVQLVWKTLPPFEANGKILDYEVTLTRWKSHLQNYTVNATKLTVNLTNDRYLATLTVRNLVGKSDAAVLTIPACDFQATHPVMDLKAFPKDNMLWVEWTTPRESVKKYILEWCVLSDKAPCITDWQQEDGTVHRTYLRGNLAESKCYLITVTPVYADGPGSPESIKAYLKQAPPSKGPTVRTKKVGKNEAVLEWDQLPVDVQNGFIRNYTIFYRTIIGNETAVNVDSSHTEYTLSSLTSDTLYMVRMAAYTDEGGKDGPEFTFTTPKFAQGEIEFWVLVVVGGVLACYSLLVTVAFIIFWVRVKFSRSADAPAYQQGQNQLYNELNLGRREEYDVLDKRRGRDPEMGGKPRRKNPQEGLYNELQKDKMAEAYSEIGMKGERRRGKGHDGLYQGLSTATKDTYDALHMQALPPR

Chain of AA-SR-111 (SR-111), PD1 ECD-PD1 TM-CD3z ICD (chain, as listed by the source limits assumed, form in doubt): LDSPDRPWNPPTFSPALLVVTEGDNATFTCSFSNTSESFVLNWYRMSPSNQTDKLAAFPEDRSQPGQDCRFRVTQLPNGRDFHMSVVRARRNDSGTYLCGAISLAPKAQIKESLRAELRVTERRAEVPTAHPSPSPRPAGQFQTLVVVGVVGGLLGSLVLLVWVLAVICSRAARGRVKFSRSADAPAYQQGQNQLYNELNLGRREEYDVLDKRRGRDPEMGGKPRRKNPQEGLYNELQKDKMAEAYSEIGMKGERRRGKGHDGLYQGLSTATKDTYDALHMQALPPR
Chain of AA-SR-106 (SR-106), IL10RA ECD-IL10RA TM-CD3z ICD (chain, as listed by the source limits assumed, form in doubt): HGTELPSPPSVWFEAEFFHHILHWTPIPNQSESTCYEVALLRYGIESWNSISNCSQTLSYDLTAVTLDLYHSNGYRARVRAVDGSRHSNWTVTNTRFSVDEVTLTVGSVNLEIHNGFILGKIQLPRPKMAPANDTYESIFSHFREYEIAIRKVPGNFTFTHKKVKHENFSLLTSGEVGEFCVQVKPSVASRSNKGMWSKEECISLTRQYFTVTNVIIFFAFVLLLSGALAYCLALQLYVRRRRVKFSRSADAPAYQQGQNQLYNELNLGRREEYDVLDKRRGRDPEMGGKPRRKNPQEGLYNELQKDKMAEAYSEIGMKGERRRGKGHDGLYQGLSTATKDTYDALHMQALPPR
Chain of AA-SR-121 (SR-121), IL10RA ECD-CD28 TM-CD3z ICD (chain, as listed by the source limits assumed, form in doubt): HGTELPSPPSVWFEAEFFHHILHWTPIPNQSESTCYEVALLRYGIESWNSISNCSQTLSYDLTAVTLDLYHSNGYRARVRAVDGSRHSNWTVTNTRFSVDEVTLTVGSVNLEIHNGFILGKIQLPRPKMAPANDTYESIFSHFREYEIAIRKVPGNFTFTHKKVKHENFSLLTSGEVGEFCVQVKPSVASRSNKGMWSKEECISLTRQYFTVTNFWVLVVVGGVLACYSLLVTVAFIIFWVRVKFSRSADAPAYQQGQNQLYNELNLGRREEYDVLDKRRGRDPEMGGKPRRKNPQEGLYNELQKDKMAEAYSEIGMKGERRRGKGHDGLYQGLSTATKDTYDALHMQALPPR
Chain of AA-SR-122 (SR-122), IL10RB ECD-CD28 TM-CD3z ICD (chain, as listed by the source limits assumed, form in doubt): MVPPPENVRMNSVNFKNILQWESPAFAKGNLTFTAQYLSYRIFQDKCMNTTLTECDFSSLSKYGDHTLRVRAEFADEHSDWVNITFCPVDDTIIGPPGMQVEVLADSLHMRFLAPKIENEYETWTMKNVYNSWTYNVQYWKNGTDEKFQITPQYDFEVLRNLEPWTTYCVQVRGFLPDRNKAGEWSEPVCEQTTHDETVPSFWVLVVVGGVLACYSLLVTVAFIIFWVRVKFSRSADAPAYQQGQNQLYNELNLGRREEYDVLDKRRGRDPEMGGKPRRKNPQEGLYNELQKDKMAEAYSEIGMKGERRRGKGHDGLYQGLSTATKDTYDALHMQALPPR
Chain of AA-SR-107 (SR-107), IL10RB ECD-IL10RB TM-CD3z ICD (chain, as listed by the source limits assumed, form in doubt): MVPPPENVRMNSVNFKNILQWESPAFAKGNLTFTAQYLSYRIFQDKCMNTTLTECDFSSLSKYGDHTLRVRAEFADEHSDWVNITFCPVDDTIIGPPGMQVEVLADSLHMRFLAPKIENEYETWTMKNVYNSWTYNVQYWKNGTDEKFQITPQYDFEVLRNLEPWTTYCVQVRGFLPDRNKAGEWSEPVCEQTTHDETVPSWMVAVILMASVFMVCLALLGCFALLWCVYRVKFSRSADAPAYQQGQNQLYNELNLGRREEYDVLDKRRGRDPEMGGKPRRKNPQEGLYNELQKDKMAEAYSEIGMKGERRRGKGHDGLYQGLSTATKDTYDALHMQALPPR

Substance: anti-IL-10RA mAb clone 37607 (antibody)
- CD69, fold-change of MFI over no stimulation, High (10 ug/mL) [1]: 56.8 fold
- CD69, fold-change of MFI over no stimulation, Low (0.4 ug/mL) [1]: 4.9 fold
- CD69, fold-change of MFI over no stimulation, Med. (2 ug/mL) [1]: 29.5 fold
- GFP, fold-change of MFI over no stimulation, High (10 ug/mL) [1]: 11.4 fold
- GFP, fold-change of MFI over no stimulation, Low (0.4 ug/mL) [1]: 0.8 fold
- GFP, fold-change of MFI over no stimulation, Med. (2 ug/mL) [1]: 3.3 fold
- CD69, fold-change of MFI over no stimulation, High (10 ug/mL) [2]: 14.3 fold
- CD69, fold-change of MFI over no stimulation, Low (0.4 ug/mL) [2]: 2.2 fold
- CD69, fold-change of MFI over no stimulation, Med. (2 ug/mL) [2]: 7.9 fold
- GFP, fold-change of MFI over no stimulation, High (10 ug/mL) [2]: 5.4 fold
- GFP, fold-change of MFI over no stimulation, Low (0.4 ug/mL) [2]: 1.1 fold
- GFP, fold-change of MFI over no stimulation, Med. (2 ug/mL) [2]: 2.9 fold

Substance: anti-TGF-BR2 mAb clone W17055E (antibody)
- CD69, fold-change of MFI over no stimulation, High (10 ug/mL) [7]: 2 fold
- CD69, fold-change of MFI over no stimulation, Low (0.4 ug/mL) [7]: 1.3 fold
- CD69, fold-change of MFI over no stimulation, Med. (2 ug/mL) [7]: 1.5 fold
- GFP, fold-change of MFI over no stimulation, High (10 ug/mL) [7]: 1 fold
- GFP, fold-change of MFI over no stimulation, Low (0.4 ug/mL) [7]: 0.8 fold
- GFP, fold-change of MFI over no stimulation, Med. (2 ug/mL) [7]: 0.9 fold
- CD69, fold-change of MFI over no stimulation, High (10 ug/mL) [8]: 88.2 fold
- CD69, fold-change of MFI over no stimulation, Low (0.4 ug/mL) [8]: 2.2 fold
- CD69, fold-change of MFI over no stimulation, Med. (2 ug/mL) [8]: 25.2 fold
- GFP, fold-change of MFI over no stimulation, High (10 ug/mL) [8]: 5 fold
- GFP, fold-change of MFI over no stimulation, Low (0.4 ug/mL) [8]: 0.9 fold
- GFP, fold-change of MFI over no stimulation, Med. (2 ug/mL) [8]: 2.9 fold

Substance: anti-gp130 mAb clone 28126 (antibody)
- CD69, fold-change of MFI over no stimulation, High (10 ug/mL) [11]: 123 fold
- CD69, fold-change of MFI over no stimulation, Low (0.4 ug/mL) [11]: 1.1 fold
- CD69, fold-change of MFI over no stimulation, Med. (2 ug/mL) [11]: 22 fold
- GFP, fold-change of MFI over no stimulation, High (10 ug/mL) [11]: 6.3 fold
- GFP, fold-change of MFI over no stimulation, Low (0.4 ug/mL) [11]: 0.5 fold
- GFP, fold-change of MFI over no stimulation, Med. (2 ug/mL) [11]: 2.6 fold
- CD69, fold-change of MFI over no stimulation, High (10 ug/mL) [12]: 64.1 fold
- CD69, fold-change of MFI over no stimulation, Low (0.4 ug/mL) [12]: 1.8 fold
- CD69, fold-change of MFI over no stimulation, Med. (2 ug/mL) [12]: 40.7 fold
- GFP, fold-change of MFI over no stimulation, High (10 ug/mL) [12]: 3 fold
- GFP, fold-change of MFI over no stimulation, Low (0.4 ug/mL) [12]: 0.5 fold
- GFP, fold-change of MFI over no stimulation, Med. (2 ug/mL) [12]: 3.9 fold

Next, values leading:

- CD69, fold-change of MFI over no stimulation, High (10 ug/mL) [3]: 108 fold
- CD69, fold-change of MFI over no stimulation, Low (0.4 ug/mL) [3]: 32.2 fold
- CD69, fold-change of MFI over no stimulation, Med. (2 ug/mL) [3]: 86.1 fold
- GFP, fold-change of MFI over no stimulation, High (10 ug/mL) [3]: 13.8 fold
- GFP, fold-change of MFI over no stimulation, Low (0.4 ug/mL) [3]: 2.9 fold
- GFP, fold-change of MFI over no stimulation, Med. (2 ug/mL) [3]: 9.3 fold
- CD69, fold-change of MFI over no stimulation, High (10 ug/mL) [4]: 115 fold
- CD69, fold-change of MFI over no stimulation, Low (0.4 ug/mL) [4]: 70.1 fold
- CD69, fold-change of MFI over no stimulation, Med. (2 ug/mL) [4]: 118 fold
- GFP, fold-change of MFI over no stimulation, High (10 ug/mL) [4]: 8.2 fold
- GFP, fold-change of MFI over no stimulation, Low (0.4 ug/mL) [4]: 6.2 fold
- GFP, fold-change of MFI over no stimulation, Med. (2 ug/mL) [4]: 12.5 fold
Substance: anti-IL-10RB mAb clone 90220 (antibody)

- CD69, fold-change of MFI over no stimulation, High (10 ug/mL) [5]: 37.6 fold
- CD69, fold-change of MFI over no stimulation, Low (0.4 ug/mL) [5]: 1.2 fold
- CD69, fold-change of MFI over no stimulation, Med. (2 ug/mL) [5]: 1.9 fold
- GFP, fold-change of MFI over no stimulation, High (10 ug/mL) [5]: 5.8 fold
- GFP, fold-change of MFI over no stimulation, Low (0.4 ug/mL) [5]: 1.3 fold
- GFP, fold-change of MFI over no stimulation, Med. (2 ug/mL) [5]: 1.4 fold
- CD69, fold-change of MFI over no stimulation, High (10 ug/mL) [6]: 27.3 fold
- CD69, fold-change of MFI over no stimulation, Low (0.4 ug/mL) [6]: 1.1 fold
- CD69, fold-change of MFI over no stimulation, Med. (2 ug/mL) [6]: 1.7 fold
- GFP, fold-change of MFI over no stimulation, High (10 ug/mL) [6]: 5.5 fold
- GFP, fold-change of MFI over no stimulation, Low (0.4 ug/mL) [6]: 0.9 fold
- GFP, fold-change of MFI over no stimulation, Med. (2 ug/mL) [6]: 1.2 fold
Substance: anti-PD-1 mAb clone EH12.2H7 (antibody)

- CD69, fold-change of MFI over no stimulation, High (10 ug/mL) [9]: 17.1 fold
- CD69, fold-change of MFI over no stimulation, Low (0.4 ug/mL) [9]: 7.2 fold
- CD69, fold-change of MFI over no stimulation, Med. (2 ug/mL) [9]: 17.1 fold
- GFP, fold-change of MFI over no stimulation, High (10 ug/mL) [9]: 4.6 fold
- GFP, fold-change of MFI over no stimulation, Low (0.4 ug/mL) [9]: 0.9 fold
- GFP, fold-change of MFI over no stimulation, Med. (2 ug/mL) [9]: 2.2 fold
- CD69, fold-change of MFI over no stimulation, High (10 ug/mL) [10]: 3.4 fold
- CD69, fold-change of MFI over no stimulation, Low (0.4 ug/mL) [10]: 1.2 fold
- CD69, fold-change of MFI over no stimulation, Med. (2 ug/mL) [10]: 2.6 fold
- GFP, fold-change of MFI over no stimulation, High (10 ug/mL) [10]: 1.7 fold
- GFP, fold-change of MFI over no stimulation, Low (0.4 ug/mL) [10]: 0.6 fold
- GFP, fold-change of MFI over no stimulation, Med. (2 ug/mL) [10]: 1.2 fold
Substance: anti-TIGIT mAb clone A15153G (antibody)

— patent publication US20260055162A1
